Measured values as given in US20190248900A1 (Y BIOLOGICS, published 2019).
Changes are numbered by the printed parent chain.

T1: rat PD1 protein (rat, UniProt D3ZIN8 25-169)
T1 construct: also called rat PD-1 proteins
T1 sequence: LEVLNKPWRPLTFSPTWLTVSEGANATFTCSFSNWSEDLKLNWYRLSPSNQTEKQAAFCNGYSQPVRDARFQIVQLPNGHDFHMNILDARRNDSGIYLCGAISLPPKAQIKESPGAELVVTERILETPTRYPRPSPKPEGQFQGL

B1: PD1-41C9 (antibody, V domains shown)
VH: QMQLVESGGGVVQPGRSLRLSCAASGFTFSSYAMHWVRQAPGKGLEWVAVISYDGSNKYYADSVKGRFTISRDNSKNTLYLQMNRLRSEDTAVYYCTTTTFDSWGQGTLITVSS
VL: DIVMTQTPLSLPVTPGEAASISCRSSQSLLDSEDGNTYLDWYLQKPGQSPQLLIYTLSHRASGVPDRFSGSGSGTDFTLKISRVAAEDVGLYYCLQRMGFPYTFGQGTKLDIK
notes: scFv-phage in the screening ELISA; whole IgG in the other assays
B2: PD1-49A2 (antibody, V domains shown)
VH: B1 VH with M2V, S75P, R85S, S88A, Q106R, I110V
VL: B1 VL with T7S, A18P, L30F, E33D, A85E, L91I, L110V, D111E
notes: scFv-phage in the screening ELISA; whole IgG in the other assays; also called Parent 49A2
B3: PD1-45D6 (antibody, V domains shown)
VH: QVQLVESGGGVVQPGRSLRLSCAASGFTFSSYAMHWVRQVPGKGLEWVAVISYDGNDKYYADSVKGRFTISRDNSKNTLYLQMNSLRAEDTAVYYCVPTTFEYWGQGSQVTVSS
VL: DIVMTQTPLSLPVTPGEAASISCRSSQSLLDSDDGKTYLDWYLQKPGQSPQLLIYTLSYRASGVPDRFSGSGSGTEFNLRISRVEAEDVGIYYCMQRVEFPFTFGQGTKLDIK
notes: as for B1
B4: PD1-52E8 (antibody, V domains shown)
VH: QVQLVQSGGNLVQPGRSLRLSCAASGFTFDDYAMHWVRQAPGKGLEWVSGISWNSGTPGYADSVQGRFTISRDNAKNSLYLQMNSLRAEDTAVYYCARGHNYLDSSYYDYWGQGTLVTVSS
VL: SYELTQPLSLSVAPGQTARITCSGDALSKEYSYWYQQKPGQAPVLVMYKDSERPSGIPERFSGSSSGTTVTLTISGVQAEDEADYYCQSVDSSDTSVVFGGGTKLTVL
notes: as for B1

Legend:
M1-1 = target: T2, M1-1; test: ELISA, 1 ug/ml
T2 construct: also called PD1 mutant M1-1

[1] = target: T3, human PD-1 (NM_005018.2) over-expressed on cells (human, UniProt Q15116 25-288); test: flow cytometry, 18 nM, over IgG
T3 construct: whole, on cells; also called human PD-1 over-expressed on the cell surface; Jurkat cell line highly expressing human PD-1

PD1-hFc [2] = target: T4, PD1-hFc (human, UniProt Q15116 25-170); test: SPR ProteOn XPR36, PD1-hFc immobilised, antibody as analyte
T4 construct: extracellular domain; also called PD1-hFc protein; Human PD-1-Fc (S1420, Y-Biologics)
Protocol: (§1) A ProteOn XPR36 (BioRad) instrument was used. The GLC sensor chip (BioRad) was mounted on the instrument and washed with PBST buffer, and the carboxymethyldextran surface was activated with an EDC/sulfo-NHS mixed solution. PD1-hFc dissolved at a concentration of 5 ug/ml in a 10 mM sodium acetate buffer solution (pH 5.0) was injected and immobilized on the GLC sensor chip.
(§2) In order to deactivate the activated carboxyl groups that remain unreacted with the PD1 protein, 1 M ethanolamine was flowed and 10 mM glycine (pH 2.0) was injected in order to wash proteins that remain unbound to the sensor chip.
(§3) The equilibrium dissociation constant (KD) was calculated by plotting and fitting the sensogram data in the equilibrium state depending on concentration.

[3] = target: T5, PD-1-His (S1352, Y-Biologics) (UniProt Q15116 25-170, limits assumed); test: competition ELISA: PD-L2-Fc coated, PD-1-His as binder, antibody as competitor
T5 construct: not shown: His tag
Protocol: (§4) Human PD-1-Fc (S1420, Y-Biologics) or PD-L2-Fc (#10292-H02H, Sino) was added to wells of a 96-well immuno microplate (#439454, Thermo) and then washed three times with PBS containing 0.05% tween-20 (#P9416, Sigma-Aldrich), followed by allowing to stand in a cleaning solution containing 4% skim milk (#232120, Becton, Dickinson and Company) at room temperature for 1 hour to block non-specific binding. […] After the resulting product was subjected to the same washing method as above, the anti-Biotin-His antibody (#MA1-21315-BTIN, Thermo) diluted to 1:2000 was added to the well of the microplate, allowed to react at room temperature for 1 hour, streptavidin poly-HRP antibody (#21140, Pierce) diluted to 1:5000 was added to the well of microplate, reacted at room temperature for 1 hour and then washed in the same manner. 100 ul of a TMB substrate solution (#T0440, Sigma-Aldrich) was added to the reaction product, light was shielded, and the reaction product was allowed to stand at room temperature for 3 minutes, 50 μL of 2.5 M sulfuric acid (#S1478, Samchun) was added to stop the reaction, and absorbance was measured at 450 nm using a spectrophotometer (*GM3000, Glomax® Discover System Promega).

[4] = target: T3, human PD-1 (NM_005018.2) over-expressed …; test: flow cytometry on cells over-expressing human PD-1, fit of Geometric Mean
PD1-hFc [5] = target: T4, PD1-hFc; test: competition ELISA: PD1-Fc coated, PDL1-His as binder, antibody as competitor
Protocol: as §4

PD1-hFc [6] = target: T4, PD1-hFc; test: SPR ProteOn XPR36, PD1-hFc immobilised, antibody as analyte; parent antibody, Example 4 text (FIG. 9), not the Table 12 run
Protocol: as §1, §2, §3

monkey PD1 protein = target: T6, monkey PD1 protein (monkey); test: SPR ProteOn XPR36; format for monkey PD1 not described
T6 construct: also called monkey PD-1 proteins

[7] = target: T3, human PD-1 (NM_005018.2) over-expressed …; test: cell-based or functional assay
rat PD1 protein = target: T1, rat PD1 protein; test: SPR ProteOn XPR36; format for rat PD1 not described
PD1-hFc [8] = target: T4, PD1-hFc; test: ProteOn XPR36; legend names PD1-hFc, the sheet names the immobilised protein PD-1 C-his

Binder	OD490 (M1-1)	Fold [1]	Kd (PD1-hFc [2]) [nM]	koff (PD1-hFc [2]) [s⁻¹]	kon (PD1-hFc [2]) [M⁻¹ s⁻¹]	IC50 [3] [nM]	Bmax [4]	Kd [4] [nM]	IC50 (PD1-hFc [5]) [nM]	Kd (PD1-hFc [6]) [nM]	Kd (monkey PD1 protein) [nM]	koff (monkey PD1 protein) [s⁻¹]	kon (monkey PD1 protein) [M⁻¹ s⁻¹]	EC50 [7] [nM]	Kd (rat PD1 protein) [nM]	koff (rat PD1 protein) [s⁻¹]	kon (rat PD1 protein) [M⁻¹ s⁻¹]	Kd (PD1-hFc [8]) [nM]	koff (PD1-hFc [8]) [s⁻¹]
B1	3.1																		
B2	3.4	222	0.237	9.37e-05	395000	59.7	3000	38.2	3.92	0.019	0.001	1e-07	168000						
B3	3.8	286			270000	49.6	1640	2.7	3.72		0.001	1e-07	154000	1.88	2.39	0.000133	55400	< 0.001	< 1.07e-07
B4	1.5																		
